From the supplement of paper PMC11780869

Tested on: Bacillus subtilis
Experiment: cleaved RNA product abundance (RNA/gDNA barcode ratio) relative to median wild-type variant (ratio to wild type); higher = more accumulation of the downstream cleavage product
Conditions: cleavage site: cggR-gapA (positions -7 to +36 mutated)
Summary of the method: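 In LB at 37°C, B. subtilis cultures went from OD600 0.0003 to 0.3. Their chromosomes held barcoded reporter mRNAs, truncated aprE or tetM, with RNase Y cleavage-site windows mutagenized via oligos at a 9% error rate. Cleaved RNA, chosen by gel, was reverse transcribed and barcode-sequenced alongside genomic DNA barcodes with UMI collapsing, giving a per-construct RNA:gDNA ratio scaled to the median construct with the unmutated site. This scaled ratio is termed cleaved product abundance.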

[1] = experiment (reporter, strain, medium): exp 2b: truncated aprE reporter, strain BJT200
[2] = experiment (reporter, strain, medium): exp 4a: truncated aprE reporter, strain BJT201 with 2% xylose (RNase J1 expressed)

## ACAGACGAAGGAGCCGCAAATAAGTTATTAAGGGATGAATAATCCCTCTATATAAATATCTCTCACTTATTTAAA
[1]
  cleaved RNA product abundance: 0.34
[2]
  cleaved RNA product abundance: 0.439

## ACAGACGAAGGAGCCGCAAATAAGTTATTAAGGGATGAATAATCCCTTAATATAAATATCTCTCACTTATTTAAA
[2]
  cleaved RNA product abundance: 0.452

## ACAGACGAAGGAGCCGCAAATAAGTTATTAAGGGATGAATAATCCGTCAATATAAATATCTCTCACTTATTTAAA
[2]
  cleaved RNA product abundance: 0.299

## ACAGACGAAGGAGCCGCAAATAAGTTATTAAGGGATGAATAATCCTTCAATATAAATATCTCTCACTTATTTAAA
[1]
  cleaved RNA product abundance: 0.395

## ACAGACGAAGGAGCCGCAAATAAGTTATTAAGGGATGAATAATCGCTCAATATAAATATCTCTCACTTATTTAAA
[2]
  cleaved RNA product abundance: 0.121

## ACAGACGAAGGAGCCGCAAATAAGTTATTAAGGGATGAATAATCTCTCAATATAAATATCTCTCACTTATTTAAA
[1]
  cleaved RNA product abundance: 0.613
[2]
  cleaved RNA product abundance: 0.758

## ACAGACGAAGGAGCCGCAAATAAGTTATTAAGGGATGAATAATGCCTCAATATAAATATCTCTCACTTATTTAAA
[2]
  cleaved RNA product abundance: 0.145

## ACAGACGAAGGAGCCGCAAATAAGTTATTAAGGGATGAATAATTCCTCAATATAAATATCTCTCACTTATTTAAA
[2]
  cleaved RNA product abundance: 0.547

## ACAGACGAAGGAGCCGCAAATAAGTTATTAAGGGATGAATACTCCCTCAATATAAATATCTCTCACTTATTTAAA
[1]
  cleaved RNA product abundance: 0.682
[2]
  cleaved RNA product abundance: 0.538

## ACAGACGAAGGAGCCGCAAATAAGTTATTAAGGGATGAATAGTCCCTCAATATAAATATCTCTCACTTATTTAAA
[1]
  cleaved RNA product abundance: 0.852
[2]
  cleaved RNA product abundance: 0.887

## ACAGACGAAGGAGCCGCAAATAAGTTATTAAGGGATGAATATTCCCTCAATATAAATATCTCTCACTTATTTAAA
[1]
  cleaved RNA product abundance: 0.769
[2]
  cleaved RNA product abundance: 1.07

## ACAGACGAAGGAGCCGCAAATAAGTTATTAAGGGATGAATCATCCCTCAATATAAATATCTCTCACTTATTTAAA
[1]
  cleaved RNA product abundance: 0.769
[2]
  cleaved RNA product abundance: 0.899

## ACAGACGAAGGAGCCGCAAATAAGTTATTAAGGGATGAATTATCCCTCAATATAAATATCTCTCACTTATTTAAA
[1]
  cleaved RNA product abundance: 0.711
[2]
  cleaved RNA product abundance: 0.737

## ACAGACGAAGGAGCCGCAAATAAGTTATTAAGGGATGATTAATCCCTCAATATAAATATCTCTCACTTATTTAAA
[1]
  cleaved RNA product abundance: 0.783
[2]
  cleaved RNA product abundance: 0.697

## ACAGACGAAGGAGCCGCAAATAAGTTATTAAGGGATGCATAATCCCTCAATATAAATATCTCTCACTTATTTAAA
[2]
  cleaved RNA product abundance: 1.1

## ACAGACGAAGGAGCCGCAAATAAGTTATTAAGGGATGTATAATCCCTCAATATAAATATCTCTCACTTATTTAAA
[2]
  cleaved RNA product abundance: 0.901

## ACAGACGAAGGAGCCGCAAATAAGTTATTAAGGGATTAATAATCCCTCAATATAAATATCTCTCACTTATTTAAA
[1]
  cleaved RNA product abundance: 0.863
[2]
  cleaved RNA product abundance: 0.881

## ACAGACGAAGGAGCCGCAAATAAGTTATTAAGGGCTGAATAATCCCTCAATATAAATATCTCTCACTTATTTAAA
[2]
  cleaved RNA product abundance: 0.627

## ACAGACGAAGGAGCCGCAAATAAGTTATTAAGGGGTGAATAATCCCTCAATATAAATATCTCTCACTTATTTAAA
[2]
  cleaved RNA product abundance: 0.273

## ACAGACGAAGGAGCCGCAAATAAGTTATTAAGGGTTGAATAATCCCTCAATATAAATATCTCTCACTTATTTAAA
[1]
  cleaved RNA product abundance: 0.425
[2]
  cleaved RNA product abundance: 0.423

## ACAGACGAAGGAGCCGCAAATAAGTTATTAAGGTATGAATAAACCCTCAATATAAATATCTCTCACTTATTTAAA
[1]
  cleaved RNA product abundance: 0.118

## ACAGACGAAGGAGCCGCAAATAAGTTATTAAGGTATGAATAATCCCTCAATATAAATATCTCTCACTTATTTAAA
[1]
  cleaved RNA product abundance: 0.169
[2]
  cleaved RNA product abundance: 0.139

## ACAGACGAAGGAGCCGCAAATAAGTTATTAAGGTATGAATAATCCCTCAATATAAATTTCTCTCACTTATTTAAA
[2]
  cleaved RNA product abundance: 0.159

## ACAGACGAAGGAGCCGCAAATAAGTTATTAAGGTTTGAATAATCCCTCAATATAAATATCTCTCACTTATTTAAA
[2]
  cleaved RNA product abundance: 0.0913

## ACAGACGAAGGAGCCGCAAATAAGTTATTAAGTGATGAATAATCCCTCAATATAAATATCTCTCACTTATTTAAA
[1]
  cleaved RNA product abundance: 0.109
[2]
  cleaved RNA product abundance: 0.107

## ACAGACGAAGGAGCCGCAAATAAGTTATTAATGAATGAATAATCCCTCAATATAAATATCTCTCACTTATTTAAA
[2]
  cleaved RNA product abundance: 0.107

## ACAGACGAAGGAGCCGCAAATAAGTTATTAATGGATGAATAATCCCTCAATATAAATATCTCTCACTTATTTAAA
[1]
  cleaved RNA product abundance: 0.123
[2]
  cleaved RNA product abundance: 0.184

## ACAGACGAAGGAGCCGCAAATAAGTTATTAATGGATGAATAATCCCTCATTATAAATATCTCTCACTTATTTAAA
[2]
  cleaved RNA product abundance: 0.135

## ACAGACGAAGGAGCCGCAAATAAGTTATTACGGGATGAATAATCCCTCAATATAAATATCTCTCACTTATTTAAA
[2]
  cleaved RNA product abundance: 0.36

## ACAGACGAAGGAGCCGCAAATAAGTTATTAGGGGATGAATAATCCCTCAATATAAATATCTCTCACTTATTTAAA
[1]
  cleaved RNA product abundance: 0.603

## ACAGACGAAGGAGCCGCAAATAAGTTATTATGGGATGAATAATCCCTCAATATAAATATCTCTCACTTATTTAAA
[2]
  cleaved RNA product abundance: 0.365

## ACAGACGAAGGAGCCGCAAATAAGTTATTATGGGATGAATAATCCCTCTATATAAATATCTCTCACTTATTTAAA
[2]
  cleaved RNA product abundance: 0.483

## ACAGACGAAGGAGCCGCAAATAAGTTATTCAGGGATGAATAATCCCTCAATATAAATATCTCTCACTTATTTAAA
[2]
  cleaved RNA product abundance: 1.09

## ACAGACGAAGGAGCCGCAAATAAGTTATTTAGGGATGAATAATCCCTCAATATAAATATCTCTCACTTATTTAAA
[1]
  cleaved RNA product abundance: 0.993
[2]
  cleaved RNA product abundance: 0.766

## ACAGACGAAGGAGCCGCAAATAAGTTCTTAAGGGATGAATAATCCCTCAATATAAATATCTCTCACTTATTTAAA
[1]
  cleaved RNA product abundance: 0.148
[2]
  cleaved RNA product abundance: 0.258

## ACAGACGAAGGAGCCGCAAATAAGTTGTTAAGGGATGAATAATCCCTCAATATAAATATCTCTCACTTATTTAAA
[2]
  cleaved RNA product abundance: 0.458

## ACAGACGAAGGAGCCGCAAATAAGTTTTTAAGGGATGAATAATCCCTCAATATAAATATCTCTCACTTATTTAAA
[1]
  cleaved RNA product abundance: 0.29
[2]
  cleaved RNA product abundance: 0.402

## ACAGACGAAGGAGCCGCAAATAATTTATTAAGGGATGAATAATCCCTCAATATAAATATCTCTCACTTATTTAAA
[1]
  cleaved RNA product abundance: 0.866
[2]
  cleaved RNA product abundance: 0.591

## ACAGACGAAGGAGCCGCAAATACGTTATTAAGGGATGAATAAACCCTCAATATAAATATCTCTCACTTATTTAAA
[2]
  cleaved RNA product abundance: 0.383

## ACAGACGAAGGAGCCGCAAATACGTTATTAAGGGATGAATAATCCCTCAATATAAATATCTCTCACTTATTTAAA
[2]
  cleaved RNA product abundance: 0.984

## ACAGACGAAGGAGCCGCAAATATGTTATTAAGGGATGAATAATCCCTCAATATAAATATCTCTCACTTATTTAAA
[2]
  cleaved RNA product abundance: 1.1

## ACAGACGAAGGAGCCGCAAATGAGTTATTAAAGGATGAATAATCCCTCAATATAAATATCTCTCACTTATTTAAA
[1]
  cleaved RNA product abundance: 0.181

## ACAGACGAAGGAGCCGCAAATGAGTTATTAAGGGATGAATAATCCCTCAATATAAATATCTCTCACTTATTTAAA
[2]
  cleaved RNA product abundance: 1.15

## ACAGACGAAGGAGCCGCAAATTAGTTATTAAGGGATGAAAAATCCCTCAATATAAATATCTCTCACTTATTTAAA
[2]
  cleaved RNA product abundance: 0.655

## ACAGACGAAGGAGCCGCAAATTAGTTATTAAGGGATGAATAATCCCTCAATATAAATATCTCTCACTTATTTAAA
[2]
  cleaved RNA product abundance: 0.919

## ACAGACGAAGGAGCCGCAAATTAGTTATTAAGGGATGAATAATCCCTCTATATAAATATCTCTCACTTATTTAAA
[2]
  cleaved RNA product abundance: 0.215
